Assay results as given in publication PMC5571939, “The nature of the Syntaxin4 C-terminus affects Munc18c-supported SNARE assembly” (PLoS ONE, 2017).

Legend:
Settings in all cases: both partners purified
Sx4_(1-275)-T4L-His [1] = biological target: T1, Sx4_(1-275)-T4L-His (rat | phage T4 (from the name T4 …, UniProt Q08850 1-275; P00720 1-164, C141S); assay: BLI; C-terminally His-tagged Sx4 constructs loaded on Ni-NTA biosensors; de-tagged Munc18c 10/25–400 nM in solution; 25 mM Tris-Cl pH 7.5, 150 mM NaCl, 10 mM imidazole, 0.1% TX-100, 10% glycerol, 2 mM βME; BLItz; 1:1 fit
T1 construct: T4 lysozyme (T4L), amino acids 1-164, synthetic gene (GeneArt); Sx4 ligated between NdeI and HindIII, T4L between HindIII and XhoI of pET20b; also called Sx4 cytoplasmic domain with C-terminal T4-lysozyme fusion and His6; source: E. coli, purified; not shown: His6, C-terminal, kept

Sx4_(1-275)-T4L-His [2] = biological target: T1, Sx4_(1-275)-T4L-His; assay: ITC; Sx4-T4L-His construct (200–250 μM) titrated into HMunc18c (20–40 μM) in the cell; 298 K; 25 mM HEPES pH 8.0, 200 mM NaCl, 10% glycerol, 2 mM β-ME; single site model
[3] = biological target: T2, Alexa488-labeled Sx4_(1-275)-T4L-His (native C141) (rat | phage T4 (from the name T4 …, UniProt Q08850 1-275)); P00720 1-164, Alexa Fluor 488 C5 maleimide on cysteine (native C141 rather than C141S)); assay: fluorescence polarisation; fluorescence anisotropy kinetics, both in solution: Alexa488-labeled Sx4 (50 nM) with HMunc18c at 100–2500 nM; 25°C; 25 mM HEPES pH 8.0, 200 mM NaCl, 1 mM TCEP, 2% glycerol; global 1:1 fit (Dynafit 4.0)
T2 construct: T4 lysozyme (T4L), amino acids 1-164, synthetic gene (GeneArt); Degree of labeling greater than 90%; not shown: His6, C-terminal, kept

[4] = biological target: T3, Munc18c:Sx4_(1-298)-TMD (HL-Munc18c with de-tagged full-length Sx4, pre-formed) (mouse, UniProt Q60770 1-592; P70452 1-298); assay: pull-down; beads with pre-formed HL-Munc18c/Sx4 binary complexes incubated with SNAP23 (100 μg, 21.7 μM) and VAMP2 (80 μg, 31.7 μM) together, overnight, 4°C; SDS-PAGE, Coomassie
T3 construct: Munc18c (Munc18-3), mouse; as m12; Syntaxin4 (Sx4) with its C-terminal transmembrane domain, mouse, amino acids 1-298; as m6; also called HL-Munc18c/Sx4 binary complex; source: formed on TALON Co2+ beads from purified E. coli proteins; not shown: His6 with long linker ([residues removed]), N-terminal, kept; His6, N-terminal, cleaved
T3 sequence (looked up) 1: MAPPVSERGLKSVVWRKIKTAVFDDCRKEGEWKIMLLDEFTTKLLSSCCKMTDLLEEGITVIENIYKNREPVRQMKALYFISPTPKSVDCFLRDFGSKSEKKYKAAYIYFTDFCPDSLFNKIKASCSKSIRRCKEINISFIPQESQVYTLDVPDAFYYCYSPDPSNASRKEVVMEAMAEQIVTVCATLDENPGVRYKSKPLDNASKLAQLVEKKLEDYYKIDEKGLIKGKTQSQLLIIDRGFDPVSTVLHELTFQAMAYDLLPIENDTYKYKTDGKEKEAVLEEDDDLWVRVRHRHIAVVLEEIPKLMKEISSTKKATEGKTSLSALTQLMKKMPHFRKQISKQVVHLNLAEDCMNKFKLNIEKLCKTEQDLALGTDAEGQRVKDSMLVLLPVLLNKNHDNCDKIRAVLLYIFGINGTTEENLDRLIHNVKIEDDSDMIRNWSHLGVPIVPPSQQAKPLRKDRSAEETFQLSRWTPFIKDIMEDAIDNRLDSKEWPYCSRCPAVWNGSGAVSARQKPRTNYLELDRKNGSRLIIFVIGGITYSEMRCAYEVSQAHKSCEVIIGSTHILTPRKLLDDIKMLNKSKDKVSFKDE
T3 sequence (looked up) 2: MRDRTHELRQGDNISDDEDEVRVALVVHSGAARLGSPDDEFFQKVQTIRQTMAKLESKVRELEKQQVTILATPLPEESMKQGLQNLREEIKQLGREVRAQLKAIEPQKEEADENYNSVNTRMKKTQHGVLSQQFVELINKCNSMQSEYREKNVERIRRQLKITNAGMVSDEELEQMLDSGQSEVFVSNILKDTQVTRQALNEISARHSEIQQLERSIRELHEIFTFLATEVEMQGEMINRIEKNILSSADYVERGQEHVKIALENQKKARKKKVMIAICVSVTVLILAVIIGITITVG

Sx4_(1-275)-His = biological target: T4, Sx4_(1-275)-His (rat, UniProt Q08850 1-275, C141S); assay: pull-down; Sx4-His proteins immobilised by C-terminal His6 on Co2+ resin, pre-complexed with de-tagged Munc18c or without it (controls); GST-cleaved SNAP23 and VAMP2 (40 μg) added together, overnight, 4°C; SDS-PAGE, Coomassie
T4 construct: also called Syntaxin4 soluble cytoplasmic domain with C-terminal His6; source: E. coli, purified as described previously [17, 28]; not shown: His6, C-terminal, kept
T4 sequence (looked up): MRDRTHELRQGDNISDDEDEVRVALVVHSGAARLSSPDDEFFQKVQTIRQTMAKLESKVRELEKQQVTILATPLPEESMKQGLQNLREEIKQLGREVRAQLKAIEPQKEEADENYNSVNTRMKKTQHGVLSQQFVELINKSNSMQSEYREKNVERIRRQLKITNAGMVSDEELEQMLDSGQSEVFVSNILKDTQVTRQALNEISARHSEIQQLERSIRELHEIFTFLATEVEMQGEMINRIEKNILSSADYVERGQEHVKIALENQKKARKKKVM

[5] = biological target: T5, Munc18c:Sx4_(1-275)-His pre-formed complex (rat | mouse, UniProt Q08850 1-275; Q60770 1-592, C141S); assay: as above
T5 construct: as m1; Munc18c (Munc18-3), mouse; as m10; m1 immobilised by its C-terminal His6 and complexed with m10 before SNAP23 and VAMP2 were added; also called Munc18c/Sx4-His; source: formed on TALON Co2+ beads from purified E. coli proteins; not shown: His6, C-terminal, kept; His6, N-terminal, cleaved
T5 sequence (looked up) 1: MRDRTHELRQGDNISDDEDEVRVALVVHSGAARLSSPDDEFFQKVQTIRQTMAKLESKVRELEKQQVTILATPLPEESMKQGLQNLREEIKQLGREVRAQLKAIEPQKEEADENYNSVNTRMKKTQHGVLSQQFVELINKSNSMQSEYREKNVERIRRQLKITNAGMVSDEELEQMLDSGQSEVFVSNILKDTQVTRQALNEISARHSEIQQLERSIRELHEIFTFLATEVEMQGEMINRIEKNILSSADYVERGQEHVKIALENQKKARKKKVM
T5 sequence (looked up) 2: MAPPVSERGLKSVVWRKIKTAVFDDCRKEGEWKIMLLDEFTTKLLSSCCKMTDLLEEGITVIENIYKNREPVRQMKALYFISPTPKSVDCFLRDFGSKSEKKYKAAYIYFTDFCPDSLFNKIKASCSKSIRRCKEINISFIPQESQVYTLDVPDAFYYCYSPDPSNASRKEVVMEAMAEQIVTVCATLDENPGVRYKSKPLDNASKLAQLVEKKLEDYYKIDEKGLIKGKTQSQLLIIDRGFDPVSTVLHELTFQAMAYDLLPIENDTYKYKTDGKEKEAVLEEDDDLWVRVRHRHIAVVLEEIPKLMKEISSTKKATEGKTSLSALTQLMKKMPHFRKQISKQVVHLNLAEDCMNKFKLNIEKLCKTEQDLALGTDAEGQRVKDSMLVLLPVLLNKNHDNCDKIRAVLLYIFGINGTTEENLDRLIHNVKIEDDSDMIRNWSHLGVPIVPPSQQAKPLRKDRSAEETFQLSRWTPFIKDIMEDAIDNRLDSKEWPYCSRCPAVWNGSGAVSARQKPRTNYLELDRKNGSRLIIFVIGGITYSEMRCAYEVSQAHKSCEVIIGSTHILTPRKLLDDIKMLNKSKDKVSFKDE

B1: Munc18c (de-tagged) (natural protein, mouse, UniProt Q60770 1-592, looked up)
chain: MAPPVSERGLKSVVWRKIKTAVFDDCRKEGEWKIMLLDEFTTKLLSSCCKMTDLLEEGITVIENIYKNREPVRQMKALYFISPTPKSVDCFLRDFGSKSEKKYKAAYIYFTDFCPDSLFNKIKASCSKSIRRCKEINISFIPQESQVYTLDVPDAFYYCYSPDPSNASRKEVVMEAMAEQIVTVCATLDENPGVRYKSKPLDNASKLAQLVEKKLEDYYKIDEKGLIKGKTQSQLLIIDRGFDPVSTVLHELTFQAMAYDLLPIENDTYKYKTDGKEKEAVLEEDDDLWVRVRHRHIAVVLEEIPKLMKEISSTKKATEGKTSLSALTQLMKKMPHFRKQISKQVVHLNLAEDCMNKFKLNIEKLCKTEQDLALGTDAEGQRVKDSMLVLLPVLLNKNHDNCDKIRAVLLYIFGINGTTEENLDRLIHNVKIEDDSDMIRNWSHLGVPIVPPSQQAKPLRKDRSAEETFQLSRWTPFIKDIMEDAIDNRLDSKEWPYCSRCPAVWNGSGAVSARQKPRTNYLELDRKNGSRLIIFVIGGITYSEMRCAYEVSQAHKSCEVIIGSTHILTPRKLLDDIKMLNKSKDKVSFKDE
notes: Munc18c (Munc18-3), mouse; also called detagged Munc18c; HTMunc18c after TEV cleavage; source: E. coli, purified (IMAC, TEV cleavage, reverse IMAC, SEC); not shown: His6, N-terminal, cleaved
B1 showed a Kd (Sx4_(1-275)-T4L-His [1]) of 20 nM, a koff (Sx4_(1-275)-T4L-His [1]) of 0.0078 s⁻¹ and a kon (Sx4_(1-275)-T4L-His [1]) of 430000 M⁻¹ s⁻¹.

B2: HMunc18c (natural protein, mouse, UniProt Q60770 1-592, looked up)
chain: MAPPVSERGLKSVVWRKIKTAVFDDCRKEGEWKIMLLDEFTTKLLSSCCKMTDLLEEGITVIENIYKNREPVRQMKALYFISPTPKSVDCFLRDFGSKSEKKYKAAYIYFTDFCPDSLFNKIKASCSKSIRRCKEINISFIPQESQVYTLDVPDAFYYCYSPDPSNASRKEVVMEAMAEQIVTVCATLDENPGVRYKSKPLDNASKLAQLVEKKLEDYYKIDEKGLIKGKTQSQLLIIDRGFDPVSTVLHELTFQAMAYDLLPIENDTYKYKTDGKEKEAVLEEDDDLWVRVRHRHIAVVLEEIPKLMKEISSTKKATEGKTSLSALTQLMKKMPHFRKQISKQVVHLNLAEDCMNKFKLNIEKLCKTEQDLALGTDAEGQRVKDSMLVLLPVLLNKNHDNCDKIRAVLLYIFGINGTTEENLDRLIHNVKIEDDSDMIRNWSHLGVPIVPPSQQAKPLRKDRSAEETFQLSRWTPFIKDIMEDAIDNRLDSKEWPYCSRCPAVWNGSGAVSARQKPRTNYLELDRKNGSRLIIFVIGGITYSEMRCAYEVSQAHKSCEVIIGSTHILTPRKLLDDIKMLNKSKDKVSFKDE
notes: Munc18c (Munc18-3), mouse; also called Munc18c with an N-terminal His6-tag; source: E. coli, purified as described previously [39]; not shown: His6, N-terminal, kept
In the case of B2, the Kd (Sx4_(1-275)-T4L-His [2]) is reported as 100 nM, the Kd [3] is reported as 148 nM and the koff [3] is reported as 7.5e-05 s⁻¹. It also gave a kon [3] of 502 M⁻¹ s⁻¹.

B3: SNAP23 (GST-cleaved) (natural protein, mouse, UniProt O09044 1-210, looked up)
chain: MDNLSPEEVQLRAHQVTDESLESTRRILGLAIESQDAGIKTITMLDEQGEQLNRIEEGMDQINKDMREAEKTLTELNKCCGLCICPCNRTKNFESGKNYKATWGDGGDNSPSNVVSKQPSRITNGQPQQTTGAASGGYIKRITNDAREDEMEENLTQVGSILGNLKNMALDMGNEIDAQNQQIQKITEKADTNKNRIDIANTRAKKLIDS
notes: SNAP23, mouse, amino acids 1-210; source: purified (GSH-agarose, thrombin cleavage, MonoQ anion exchange)
B3: binds [4]; binds (Sx4_(1-275)-His); binds [5].
